Data as given in the supplement of paper PMC9732359.
± gives the uncertainty stated by the source.

Experiment: protein stability index of a GFP-peptide fusion (yeast GPS) (PSI 1-4); higher = more stable; sorted into four equal gates, so the index is relative within each strain
In short: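 Tiled 17-residue yeast protein peptides were fused downstream of GFP in a plasmid that also expresses Cherry, and the pooled library was carried in yeast. Mid-log cultures in leucine-free medium were sorted into four equal gates by GFP/Cherry fluorescence ratio, and plasmids from each gate were PCR-amplified and Illumina-sequenced, with reads assigned to strains by barcodes. The protein stability index for each peptide was each gate's read frequency times its gate number, summed.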

Sequence | protein stability index (doa10∆) | protein stability index (pdr5∆) | protein stability index (san1∆) | protein stability index (ubr1∆)
ESHIDSRNNTLNVTPSK [SIR4] | 2.77 ± 0.045 | 2.62 ± 0.038 | 2.75 ± 0.046 | 2.63 ± 0.033
ESILQMNQGEGEPEAGN [RPC34] | 3 ± 0.2 | 3.18 ± 0.093 | 3.46 ± 0.26 | 3 ± 0.13
ESKLKIDPDTKAPNAVV [RPB11] | 2.24 ± 0.2 | 2.56 ± 0.22 | 2.62 ± 0.11 | 2.92 ± 0.14
ESKSLLNLFSNVLKAPF [SIR4] | 2.39 ± 0.086 | 2.16 ± 0.13 | 1.56 ± 0.21 | 2.48 ± 0.077
ESLRGILHVRAQYCYKN [SRP72] | 1.94 ± 0.1 | 2.36 ± 0.11 | 2.18 ± 0.22 | 2.13 ± 0.062
ESLVHSALCILKEQELV [BRR2] | 2.35 ± 0.2 | 1.77 ± 0.079 | 1.92 ± 0.14 | 2.51 ± 0.13
ESQQQDESLKDEATVPN [SWI3] | 3.19 ± 0.079 | 3.36 ± 0.09 | 3.31 ± 0.15 | 3.21 ± 0.098
ESSHEQEEFVQFLQLDN [ECM29] | 3.5 ± 0.21 | 3.31 ± 0.13 | 3.22 ± 0.16 | 3.29 ± 0.14
ESSKALADSLDRCVDPE [DIS3] | 2.75 ± 0.084 | 2.27 ± 0.076 | 2.29 ± 0.21 | 2.38 ± 0.19
ESVELPLTHPELYEEMG [RPT2] | 2.63 ± 0.077 | 2.94 ± 0.074 | 2.78 ± 0.07 | 2.74 ± 0.037
ETDDNIETVMTQEQFVK [SRB4] | – | 3.23 ± 0.17 | 2.6 ± 0.2 | –
ETFSTSAHQSPIMQTQM [SNF2] | 3.17 ± 0.077 | 2.8 ± 0.072 | 3.28 ± 0.062 | 3.15 ± 0.04
ETIIFDSELNRALFETK [RRI1] | 3.03 ± 0.14 | 2.66 ± 0.14 | 3.2 ± 0.062 | 3.35 ± 0.17
ETISKLNEYKRETLVKT [SMC2] | 2.02 ± 0.059 | 1.99 ± 0.046 | 2.19 ± 0.062 | 2.57 ± 0.034
ETKTKKEKIKGLQDEIM [SMC4] | 3.12 ± 0.11 | 3.32 ± 0.13 | 3.13 ± 0.06 | 3.38 ± 0.068
ETKWDDADEKSSNLYET [YJR042W/NUP85] | – | 3.22 ± 0.15 | 3.02 ± 0.13 | 3.25 ± 0.097
ETNLQTFLPPLLLKLAS [ECM29] | 1.65 ± 0.038 | 1.85 ± 0.043 | 1.62 ± 0.063 | 2.11 ± 0.034
ETRAELSQLCAVPLQIV [RPO21] | 1.96 ± 0.087 | 2.32 ± 0.14 | 2.24 ± 0.21 | 2.71 ± 0.19
ETVFNYRLMIKRLNFSF [GRR1] | 1.84 ± 0.099 | 1.3 ± 0.068 | 1.27 ± 0.12 | 1.31 ± 0.074
EVAKKRSRKTVKAQRPI [RPL24A] | 3.12 ± 0.097 | 3.29 ± 0.11 | 3.18 ± 0.15 | 3.17 ± 0.16
EVIGYIAAGTYGKVYKA [SSN3] | 2.01 ± 0.05 | 2.25 ± 0.042 | 2.17 ± 0.069 | 1.9 ± 0.045
EVLNRVASRHPSESEHP [YDL116W/NUP84] | 2.94 ± 0.15 | 3.17 ± 0.11 | 2.99 ± 0.084 | 3.24 ± 0.075
EVNISSLDAREANFDLI [RPC40] | 3.4 ± 0.11 | 3.37 ± 0.095 | 3.17 ± 0.095 | 3.22 ± 0.068
EVNREEAIGFIRGSNKF [SMC3] | 2.84 ± 0.21 | 2.77 ± 0.11 | 2.88 ± 0.14 | 2.57 ± 0.09
EVNSKKKNKRALPNIEN [BRR2] | 2.9 ± 0.14 | 3.2 ± 0.096 | 3.35 ± 0.088 | 3.09 ± 0.068
EVQRILIELLTQMDGFD [RPT3] | 1.36 ± 0.054 | 2.08 ± 0.081 | 1.41 ± 0.16 | 1.81 ± 0.069

Sequence | protein stability index (doa10∆) | protein stability index (pdr5∆) | protein stability index (san1∆) | protein stability index (ubr1∆)
EVRAISVAKIRFPETMD [RPO21] | 3.08 ± 0.1 | 2.87 ± 0.087 | 2.73 ± 0.079 | 3.28 ± 0.044
EVSALVRSLPKEEQPKQ [PRP8] | 1.23 ± 0.075 | 1.38 ± 0.082 | 1.26 ± 0.12 | 1.08 ± 0.051
EVTAGEAQDEASLQQQQ [SNF6] | 3.31 ± 0.17 | – | 3.29 ± 0.14 | 3.6 ± 0.27
EVVEVQEETVVEQTAEV [RPS12] | 3.15 ± 0.1 | 3.36 ± 0.11 | 2.97 ± 0.076 | 3.24 ± 0.097
EVYNVIASDGSYVNYRH [RPO21] | 3.41 ± 0.11 | 3.58 ± 0.085 | 2.88 ± 0.12 | 3.08 ± 0.091
EYALEAVKRGTCAVGVK [PRE6] | 1.93 ± 0.08 | 2.53 ± 0.094 | 2.21 ± 0.13 | 2.92 ± 0.084
EYINNCKKNTKKCLKLA [POP4] | 2.82 ± 0.13 | 3.1 ± 0.13 | 2.99 ± 0.077 | 2.78 ± 0.14
EYLKGSESQLNSTLKKV [YCS4] | 2.85 ± 0.17 | – | 2.5 ± 0.2 | –
EYQSLMSLKDKLLIQID [SMC1] | 2.13 ± 0.077 | 2.62 ± 0.082 | 2.41 ± 0.2 | 2.38 ± 0.092
EYWAQRKKKFVLDVDPK [ISW2] | 3.08 ± 0.094 | 2.48 ± 0.26 | 3.03 ± 0.21 | 3.28 ± 0.21
FAAIPEQGIELEHIDSK [FAS2] | 3.17 ± 0.16 | 2.85 ± 0.21 | 3.39 ± 0.084 | 3.41 ± 0.1
FANNLKSAISNNFRESD [SIR4] | 2.55 ± 0.053 | 2.59 ± 0.048 | 2.56 ± 0.044 | 2.41 ± 0.042
FATNEERQMNFLTNELI [SWI3] | 3.28 ± 0.1 | 2.32 ± 0.07 | 1.96 ± 0.14 | 2.62 ± 0.053
FCPIVEEIVSNSSRFSD [YCS4] | 1.97 ± 0.1 | 1.35 ± 0.14 | 1.68 ± 0.21 | 2.35 ± 0.057
FDDNDSGNNYNDINISS [MED2] | 3.08 ± 0.037 | 3.19 ± 0.039 | 3.05 ± 0.038 | 3.151 ± 0.028
FDEEFDPFKTSSFNKRS [IRR1] | 2.76 ± 0.083 | 2.92 ± 0.061 | 2.81 ± 0.11 | 2.78 ± 0.084
FDINRSHKEGRRVPKEL [SEC65] | – | 2.52 ± 0.24 | – | –
FDNFLTEEELQAAVPDN [BRN1] | 2.93 ± 0.071 | 2.71 ± 0.071 | 2.54 ± 0.068 | 2.65 ± 0.051
FDSELIHLKQKLSESLD [SMC3] | – | 2.88 ± 0.17 | 3.22 ± 0.13 | 3.24 ± 0.14
FDYSVILNSIPAAANLD [YJL039C/NUP192] | 1.48 ± 0.051 | 1.44 ± 0.083 | 1.71 ± 0.079 | 1.26 ± 0.047
FEENDHPNRVLEHLHST [COR1] | 2.96 ± 0.049 | 2.95 ± 0.052 | 3 ± 0.055 | 3.07 ± 0.049
FEGDSNMLICAPTGSGK [BRR2] | 1.79 ± 0.096 | 1.43 ± 0.075 | 1.71 ± 0.14 | 2.18 ± 0.071
FEIVDREKNSLESGKET [SMC4] | 3.31 ± 0.26 | 3.16 ± 0.18 | – | –
FEKNTILQQRSKINSTE [MED4] | 2.79 ± 0.073 | 3.07 ± 0.084 | 2.81 ± 0.07 | 3.15 ± 0.086
FEQPSQREEAKKVVKKA [RPL27A] | 2.95 ± 0.15 | 3.28 ± 0.13 | 3.13 ± 0.15 | 3.05 ± 0.14
